Laboratory results: paper PMC4598089, “An Sp1 Modulated Regulatory Region Unique to Higher Primates Regulates Human Androgen Receptor Promoter Activity in Prostate Cancer Cells”

target: Sp1 (purified recombinant) (Homo sapiens, UniProt P08047 1-785); test: EMSA; EMSA: 10 ug nuclear extract or 120 nM Sp1, 20 fmol biotin probe; binding buffer per earlier paper (not given); 6% native PAGE, 0.5x TBE pH 8.3, cooled gel. pur-alpha bands not listed: antibody had no effect, protein not identified in extract.; conditions: label: 3' biotin, blunt
Sequence (P08047 whole entry): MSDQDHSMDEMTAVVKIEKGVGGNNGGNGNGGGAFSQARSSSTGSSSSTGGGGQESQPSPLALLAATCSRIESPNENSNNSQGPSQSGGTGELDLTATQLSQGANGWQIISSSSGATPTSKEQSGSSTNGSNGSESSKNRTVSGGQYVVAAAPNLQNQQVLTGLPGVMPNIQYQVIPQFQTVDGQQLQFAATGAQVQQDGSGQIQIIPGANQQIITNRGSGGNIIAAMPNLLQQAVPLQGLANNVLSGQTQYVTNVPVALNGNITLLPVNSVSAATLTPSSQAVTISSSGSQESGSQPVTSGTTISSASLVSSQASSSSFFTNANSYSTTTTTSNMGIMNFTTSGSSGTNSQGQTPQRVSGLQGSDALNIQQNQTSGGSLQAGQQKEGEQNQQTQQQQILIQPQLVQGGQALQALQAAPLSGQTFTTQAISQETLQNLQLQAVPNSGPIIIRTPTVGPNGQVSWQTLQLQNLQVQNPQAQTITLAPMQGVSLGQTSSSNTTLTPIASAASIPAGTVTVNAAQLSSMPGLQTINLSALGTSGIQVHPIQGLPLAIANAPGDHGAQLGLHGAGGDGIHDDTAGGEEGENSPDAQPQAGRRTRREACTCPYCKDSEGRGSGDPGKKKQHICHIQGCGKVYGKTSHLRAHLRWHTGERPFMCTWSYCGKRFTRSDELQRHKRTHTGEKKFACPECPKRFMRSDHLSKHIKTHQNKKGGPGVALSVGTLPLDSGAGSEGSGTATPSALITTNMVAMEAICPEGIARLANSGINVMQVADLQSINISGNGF

Row | Binder | binding result
1 | Sp1-1 (dsDNA) DNA 1: CGGCCCGGTGGGGGCGGGACCCGACTCGCA DNA 2: TGCGAGTCGGGTCCCGCCCCCACCGGGCCG | binds
2 | ARS (dsDNA) DNA 1: TCTCCACCCCGCCTCCCCCCACCCTGCCTT DNA 2: AAGGCAGGGTGGGGGGAGGCGGGGTGGAGA | binds
3 | Sp1-3 (dsDNA) DNA 1: TTCTCCCCACCCGCCCCCCCGCCCCCGTCG DNA 2: CGACGGGGGCGGGGGGGCGGGTGGGGAGAA | binds
